# Experimental data taken from patent US20210267939A1, “COMPOSITIONS AND METHODS FOR TREATING NAFLD/NASH AND RELATED DISEASE PHENOTYPES” (priority 2018, published 2021).
# Key:
# [1] = biological target: 147 kDa GST-tagged human ACL (Sigma, SRP0288) (UniProt P53396)
# [2] = system: BCKD E1 (an alpha2beta2 heterotetramer)
# [3] = system: AKT; experiment: AKT ser473 phosphorylation in Fao hepatoma cells; format: cell-based; settings: 10 μM for 1 hour
# Protocol: Cell culture studies: Fao hepatoma cells (Sigma) were cultured in RPMI-1640 (Gibco) containing 10% FBS (Sigma). […] Human embryonic kidney (HEK) 293 cells were used to visualize localization of CMV-ΔMTS-BDK-GFP and control CMV-GFP constructs by confocal microscopy. Cells were plated and transfected in a 96 well glass bottom plate that had been pre-coated with poly-D lysine solution for 1-hour at room temperature. For transfection, cells were incubated in Opti-mem containing 1.5 μl of Mirus, TransIT-293 transfection reagent and 1 μg DNA per well. After 24 hours, mitochondrial and nuclear staining was performed in live cells using Image-IT Live Mito and nuclear labeling Kit (Cell permeant MitoTracker Red CMXRos (579/599 nm) and Hoechst 33342 (350/461 nm) ThermoFisher). Confocal images were captured using a Zeiss LSM 510 inverted confocal microscope using a 405 diode for Hoechst, Argon for GFP, and HeNe 561 for MitoTracker. Images were captured in one plane using a 63× oil objective. Each wavelength was acquired separately and then consolidated after acquisition.
# Immunoblotting: Tissue lysates used for immunoblotting were prepared in Cell Lysis Buffer (Cell Signaling Technologies) containing protease inhibitor tablets (Roche), phosphatase inhibitor cocktails 2 and 3 (Sigma), and 10 mM PMSF. […] Immunoblots were developed using a Li-Cor Odyssey CLx and quantified using the Li-Cor software.
# [4] = biological target: V5-tagged human ACL purified from Fao hepatoma cells (UniProt P53396)
compound,measurement,setting,value
MBP-BDK (maltose-binding protein-tagged mature BDK lacking the mitochondrial-targeting pre-sequence; amino acid residue 31-382),"incorporation of [gamma-32P]-phosphoryl group into ACL (purified proteins, SDS gel, autoradiograph)",[1],"MBP-BDK also caused phosphorylation of ACL, albeit to a lesser extent than PKA"
same,"32P phosphorylation of the purified e1a subunit of BCKDH (purified proteins, SDS gel, autoradiograph)",[2],MBP-BDK also caused a robust increase in phosphorylation of the purified e1a subunit of BCKDH
O=c1[nH]c2ccccc2n1C1CCN(Cc2ccc(-c3[nH]c4cc5ncnc5cc4nc3-c3ccccc3)cc2)CC1 [A6730],phosphorylation of ser473 on AKT,[3],reduce
V5 tagged human BDK purified from Fao hepatoma cells,ACL phosphorylation on ser455 measured by immunoblot after mixing of the purified proteins with ATP,[4],This study confirmed that BDK specifically phosphorylates ser455 of the V5-tagged human ACL
"40 kDa catalytic subunit of bovine PKA (Promega, V5161)","incorporation of [gamma-32P]-phosphoryl group into ACL (purified proteins, SDS gel, autoradiograph)",[1],PKA caused a clear increase in ^32P labeling of ACL
same,"32P phosphorylation of BCKDH (purified proteins, SDS gel, autoradiograph)",[2],"PKA caused a lesser, but still clear increase in BCKDH phosphorylation"
